One molecule from patent US20250163182A1 (Janssen / Centocor, published 2025) can be followed below.

Test [1] addresses T1, cynomolgus monkey ENPP3 on HepG2-KO cyENPP3 OE cells (cynomolgus monkey, UniProt A0A2K5TKP4 1-874).
T1 sequence: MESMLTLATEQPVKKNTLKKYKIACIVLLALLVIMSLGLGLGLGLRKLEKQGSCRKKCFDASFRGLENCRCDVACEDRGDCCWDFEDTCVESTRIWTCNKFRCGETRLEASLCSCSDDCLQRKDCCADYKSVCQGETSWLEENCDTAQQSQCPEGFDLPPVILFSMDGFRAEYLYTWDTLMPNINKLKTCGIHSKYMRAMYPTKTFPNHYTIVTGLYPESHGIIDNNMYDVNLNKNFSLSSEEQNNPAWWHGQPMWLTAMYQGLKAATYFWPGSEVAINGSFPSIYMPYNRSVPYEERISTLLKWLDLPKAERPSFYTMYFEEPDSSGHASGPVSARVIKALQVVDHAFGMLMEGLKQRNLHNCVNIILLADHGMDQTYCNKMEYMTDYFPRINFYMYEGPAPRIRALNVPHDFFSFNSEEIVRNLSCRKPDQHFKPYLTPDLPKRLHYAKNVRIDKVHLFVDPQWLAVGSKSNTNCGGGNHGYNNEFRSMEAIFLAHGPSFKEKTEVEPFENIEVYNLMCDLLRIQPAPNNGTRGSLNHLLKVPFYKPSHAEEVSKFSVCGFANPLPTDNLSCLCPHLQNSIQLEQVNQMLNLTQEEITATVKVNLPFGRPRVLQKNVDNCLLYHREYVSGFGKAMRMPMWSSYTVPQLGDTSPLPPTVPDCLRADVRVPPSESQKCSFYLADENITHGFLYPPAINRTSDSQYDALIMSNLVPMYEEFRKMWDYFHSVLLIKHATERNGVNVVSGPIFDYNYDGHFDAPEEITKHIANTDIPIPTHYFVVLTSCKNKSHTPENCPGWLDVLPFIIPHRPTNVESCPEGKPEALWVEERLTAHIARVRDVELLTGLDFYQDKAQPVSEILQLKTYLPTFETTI
Description: cell-based or functional assay.

Test [2] has as its target T2, human ENPP3 on cells (human, UniProt O14638 1-875).
T2 construct: whole, on cells; also called ENPP3 on A704, VMRCRCW, HepG2, TUHR4TKB, TUHR10TKB; CHO-K1 ENPP3 OE
T2 sequence (looked up): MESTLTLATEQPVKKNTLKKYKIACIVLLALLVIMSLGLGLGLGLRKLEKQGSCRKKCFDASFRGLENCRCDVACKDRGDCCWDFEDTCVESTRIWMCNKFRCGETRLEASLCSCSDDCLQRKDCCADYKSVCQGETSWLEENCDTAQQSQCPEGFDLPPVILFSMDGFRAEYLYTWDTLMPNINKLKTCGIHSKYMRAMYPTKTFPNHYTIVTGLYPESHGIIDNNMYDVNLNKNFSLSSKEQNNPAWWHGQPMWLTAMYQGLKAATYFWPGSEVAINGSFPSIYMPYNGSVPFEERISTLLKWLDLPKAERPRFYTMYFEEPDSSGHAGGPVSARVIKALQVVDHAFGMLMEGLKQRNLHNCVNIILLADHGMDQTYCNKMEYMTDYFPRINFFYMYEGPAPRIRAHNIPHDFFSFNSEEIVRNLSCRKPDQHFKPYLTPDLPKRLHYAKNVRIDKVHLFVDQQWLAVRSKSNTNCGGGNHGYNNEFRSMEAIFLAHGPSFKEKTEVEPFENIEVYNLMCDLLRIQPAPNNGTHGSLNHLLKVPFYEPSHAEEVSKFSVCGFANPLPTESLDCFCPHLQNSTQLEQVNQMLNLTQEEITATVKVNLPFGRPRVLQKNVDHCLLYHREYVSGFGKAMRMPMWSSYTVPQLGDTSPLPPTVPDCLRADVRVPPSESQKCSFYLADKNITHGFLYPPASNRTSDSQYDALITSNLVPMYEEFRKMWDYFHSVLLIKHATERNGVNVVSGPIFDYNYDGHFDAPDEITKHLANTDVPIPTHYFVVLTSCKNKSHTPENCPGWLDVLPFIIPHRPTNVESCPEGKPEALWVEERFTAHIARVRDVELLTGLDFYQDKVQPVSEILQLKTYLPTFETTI
Description: flow cytometry on CHO ENPP3 OE cells. On the technique in general: A flow cytometer gives signals particle by particle.

Test [3] addresses T3, human ENPP3 (human, UniProt O14638 46-875, limits assumed).
T3 construct: neither the construct nor the method is stated; also called ectonucleotide pyrophosphatase/phosphodiesterase family member 3
T3 sequence (looked up): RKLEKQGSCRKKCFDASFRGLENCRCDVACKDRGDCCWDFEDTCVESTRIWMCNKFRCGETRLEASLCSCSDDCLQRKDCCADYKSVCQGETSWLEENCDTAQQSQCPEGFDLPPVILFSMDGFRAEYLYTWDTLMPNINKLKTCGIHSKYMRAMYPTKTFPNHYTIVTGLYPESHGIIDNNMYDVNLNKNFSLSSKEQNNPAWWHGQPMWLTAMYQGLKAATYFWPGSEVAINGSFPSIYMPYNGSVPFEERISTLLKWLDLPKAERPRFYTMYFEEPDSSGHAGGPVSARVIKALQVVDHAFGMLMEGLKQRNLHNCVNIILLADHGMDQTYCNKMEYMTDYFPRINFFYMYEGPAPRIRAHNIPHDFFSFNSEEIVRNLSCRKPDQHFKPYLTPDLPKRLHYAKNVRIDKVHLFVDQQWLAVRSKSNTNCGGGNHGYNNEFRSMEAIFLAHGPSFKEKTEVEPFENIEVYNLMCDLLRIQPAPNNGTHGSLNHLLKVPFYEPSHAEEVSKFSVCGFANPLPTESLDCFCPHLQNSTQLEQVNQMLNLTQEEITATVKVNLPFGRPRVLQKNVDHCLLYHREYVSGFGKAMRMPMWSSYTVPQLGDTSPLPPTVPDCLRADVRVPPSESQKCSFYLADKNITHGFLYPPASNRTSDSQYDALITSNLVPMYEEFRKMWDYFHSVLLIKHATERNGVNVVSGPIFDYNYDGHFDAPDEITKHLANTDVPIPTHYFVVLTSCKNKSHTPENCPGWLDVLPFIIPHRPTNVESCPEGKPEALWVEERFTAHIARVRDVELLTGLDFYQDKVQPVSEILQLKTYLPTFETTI
Description: affinity; method and construct not stated.

The target of test [4] is T4, human CD3 (human, UniProt P07766 23-126, limits assumed).
T4 construct: also called CD3 epsilon
Description: affinity; method and construct not stated.

Test [5] concerns the target T5, human CD3 on T cells (human, UniProt P07766 23-207).
T5 construct: on T cells it stands in the TCR-CD3 complex; also called human T cells; T cells isolated from healthy human donors
Description: flow cytometry on human T cells, average of 6 donors.

The target of test [6] is T5, human CD3 on T cells. Description: flow cytometry on human T cells, donor 110044049.

T5 sequence (P07766 23-207 limits assumed): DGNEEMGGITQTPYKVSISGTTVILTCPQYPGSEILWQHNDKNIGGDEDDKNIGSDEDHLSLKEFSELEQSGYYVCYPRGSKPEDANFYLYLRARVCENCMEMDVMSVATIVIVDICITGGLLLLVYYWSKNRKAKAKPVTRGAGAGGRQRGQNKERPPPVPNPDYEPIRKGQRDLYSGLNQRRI
T4 sequence (P07766 23-126 limits assumed): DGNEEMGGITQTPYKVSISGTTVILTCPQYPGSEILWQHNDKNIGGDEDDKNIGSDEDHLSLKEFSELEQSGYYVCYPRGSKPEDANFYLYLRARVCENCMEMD

B1: NPP3B815 (bispecific antibody, human IgG1, kappa, L234A L235A)
heavy 1: EIVLTQSPATLSASPGERVTLSCSASSSVSYMNWYQQKPGCAPRRWIYDSSKLASGVPARFSGSGSGRDYTLTISSLEPEDFAVYYCQQWSRNPPTFGGGTKVEIKGGGSGGSGGCPPCGGSGGQVQLVQSGAEVKKPGSSVKVSCKASGYTFTRSTMHWVKQAPGQGLEWIGYINPSSAYTNYNQKFQGRVTLTADKSTSTAYMELSSLRSEDTAVYYCASPQVHYDYAGFPYWGCGTLVTVSSEPKSSDKTHTCPPCPAPEAAGGPSVFLFPPKPKDTLMISRTPEVTCVVVSVSHEDPEVKFNWYVDGVEVHNAKTKPREEQYNSTYRVVSVLTVLHQDWLNGKEYKCKVSNKALPAPIEKTISKAKGQPREPQVYTLPPSREEMTKNQVSLWCLVKGFYPSDIAVEWESNGQPENNYKTTPPVLDSDGSFFLYSKLTVDKSRWQQGNVFSCSVMHEALHNHYTQKSLSLSPGK
heavy 2: EVQLVESGGGRVKPGGSLRLSCAASGFTFSDYSMNWVRQAPGKGLEWVSSISSISSYVKYADSVKGRFTMSRDNAKNSLFLQMNSLRDEDMAVYYCARGHYFDYWGQGTLVTVSSASTKGPSVFPLAPSSKSTSGGTAALGCLVKDYFPEPVTVSWNSGALTSGVHTFPAVLQSSGLYSLSSVVTVPSSSLGTQTYICNVNHKPSNTKVDKKVEPKSCDKTHTCPPCPAPEAAGGPSVFLFPPKPKDTLMISRTPEVTCVVVSVSHEDPEVKFNWYVDGVEVHNAKTKPREEQYNSTYRVVSVLTVLHQDWLNGKEYKCKVSNKALPAPIEKTISKAKGQPREPQVYTLPPSREEMTKNQVSLSCAVKGFYPSDIAVEWESNGQPENNYKTTPPVLDSDGSFFLVSKLTVDKSRWQQGNVFSCSVMHEALHNRFTQKSLSLSPGK
light: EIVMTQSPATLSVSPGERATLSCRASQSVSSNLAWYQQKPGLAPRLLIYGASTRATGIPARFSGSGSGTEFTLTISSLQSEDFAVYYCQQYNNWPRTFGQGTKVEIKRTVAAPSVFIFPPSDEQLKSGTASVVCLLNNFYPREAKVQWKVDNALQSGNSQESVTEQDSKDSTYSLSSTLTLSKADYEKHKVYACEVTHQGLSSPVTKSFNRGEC
notes: HC2 carries the NPP3B56 Fab and the hole T366S, L368A, Y407V; Fc with L234A, L235A, D265S; The CPPC linker cysteines form disulfides with engineered Cys at L42 and H105 (Chothia); also called NPP3B56×CD3B2030-N106A; ENPP3×CD3 (NPP3B815)
For B1, the “Cytotox. EC50; HepG2-KO cyno ENPP3-OE; human T cells; E:T 3:1” value in test [1] stood at 0.079 nM. Also, the “T-cell activation EC50; HepG2-KO cyno ENPP3-OE; human T cells; E:T 3:1” value in test [1] is 0.023 nM. Further, the concentration for a half-maximal effect (EC50) (usually the midpoint of the concentration-response curve) amounted to 0.51 nM in test [2], 177 nM in test [5] and 188 nM in test [6]. In addition, the dissociation constant Kd (commonly the constant that tells how readily two partners part at equilibrium) is 0.92 nM in test [3] and 110 nM in test [4].
